# Measured values reported in PMC3565990.
# Biological target: SHP-1 (UniProt P29351)
# Experiment: anti-FLAG IP, anti-SHP-1 Western blot
# Details: reference: wild-type CD72fl, NP-BSA stimulated; sites Y7
substance,measurement,value
"human CD72fl (FLAG-tagged) (from UniProt P21854) CD72flYF (Y7F), NP-BSA stimulated",binding against the reference,lost
